The values below come from patent US20230147840A1 (Chugai, published 2023).

In assay [1] the target is T1, Human CD137 extracellular domain (ECD) (human).
T1 construct: also called Human CD137 ECD; recombinant human CD137
The assay can be described thus: SPR Biacore 8K, Ab captured on anti-human Fc, CD137 as analyte, 37 C. Here is the method:
(§1) Binding affinity of Dual-Ig antibodies to human CD3 were assessed at 25 degrees C. using Biacore 8K instrument (GE Healthcare). Anti-human Fc (GE Healthcare) was immobilized onto all flow cells of a CM4 sensor chip using amine coupling kit (GE Healthcare). Antibodies were captured onto the anti-Fc sensor surfaces, then recombinant human CD3 or CD137 was injected over the flow cell. All antibodies and analytes were prepared in ACES pH 7.4 containing 20 mM ACES, 150 mM NaCl, 0.05% Tween 20, 0.005% NaN₃. Sensor surface was regenerated each cycle with 3M MgCl₂. […] CD137 binding affinity assay was conducted in same condition except assay temperature was set at 37 degrees C.

The target of assay [2] is T2, Human CD3eg linker (human).
T2 construct: Single-chain soluble construct; also called recombinant human CD3
T2 chain: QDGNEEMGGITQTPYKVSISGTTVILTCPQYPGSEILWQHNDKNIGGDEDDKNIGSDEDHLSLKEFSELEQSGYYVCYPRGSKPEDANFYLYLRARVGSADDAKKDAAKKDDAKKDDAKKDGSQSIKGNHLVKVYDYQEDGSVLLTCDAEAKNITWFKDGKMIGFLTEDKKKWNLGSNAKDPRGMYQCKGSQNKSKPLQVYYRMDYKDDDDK
Put plainly: SPR Biacore 8K, Ab captured on anti-human Fc, CD3 as analyte, 25 C. Here is the method: as §1
A general note: In SPR one partner is held on a chip, and binding of the other changes the refractive index at the surface.

Assay [3] addresses T2, Human CD3eg linker. Put plainly: SPR Biacore 8K, 25 C; reference xGPC3/DualAE05-xSG1350kSG1349hV11. Here is the method:
as §1
This is caused by faster off rate in FAST-Ig construct. […] This is caused by faster off rate in FAST-Ig construct.

The target of assay [4] is T1, Human CD137 extracellular domain (ECD). The assay can be described thus: SPR (Biacore T200, 25 degrees C), in-tandem blocking assay; antibody captured on anti-human Fc, first saturated with 8 µM hCD3eg, then 8 µM hCD137 injected in the presence of 8 µM hCD3eg. On the procedure: (§2) Biacore in-tandem blocking assay was performed to characterize non-simultaneous binding of Dual-Ig Ab for both CD3 and CD137. The assay was performed on Biacore T200 instrument (GE Healthcare) at 25 degrees C. in ACES pH 7.4 buffer containing 20 mM ACES, 150 mM NaCl, 0.05% Tween 20, 0.005% NaN₃. Anti-human Fc (GE Healthcare) was immobilized onto all flow cells of a CM4 sensor chip using amine coupling kit (GE Healthcare). Antibodies were captured onto the anti-Fc sensor surfaces, then 8 micro M CD3 was injected over the flow cell followed by an identical injection of 8 micro M CD137 in the presence of 8 micro M CD3. An increased of binding response for second injection was indicative of binding to different paratopes therefore a simultaneous binding interactions; whereas no enhancement or decreased of binding response for the 2nd injection was indicative of binding to the same or overlapping or adjacent paratopes, therefore a non-simultaneous binding interactions.

The target in assay [5] is T2, Human CD3eg linker. Put plainly: SPR (Biacore T200, 25 degrees C), in-tandem blocking assay; antibody captured on anti-human Fc, 8 µM hCD3eg injected as analyte. On the procedure:
as §2

T1 sequence (chain, as listed by the source limits assumed): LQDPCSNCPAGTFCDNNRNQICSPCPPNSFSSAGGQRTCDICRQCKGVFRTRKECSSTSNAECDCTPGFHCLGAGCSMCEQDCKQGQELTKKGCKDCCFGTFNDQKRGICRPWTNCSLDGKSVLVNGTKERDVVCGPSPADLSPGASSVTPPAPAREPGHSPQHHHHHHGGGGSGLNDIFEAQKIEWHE

B1: GPC3EK/DualAE05KE-SG1365k1363hV11 (bispecific antibody, V domains shown)
VH 1: QVQLVQSGAEVKKPGASVTVSCKASGYTFTDYEMHWIREPPGEGLEWIGAIDGPTPDTAYSEKFKGRVTLTADKSTSTAYMELSSLTSEDTAVYYCTRFYSYTYWGQGTLVTVSS
VL 1: DIVMTQSPLSLPVTPGEPASISCRSSQPLVHSNRNTYLHWYQKKPGQAPRLLIYKVSNRFSGVPDRFSGSGSGTDFTLKISRVEAEDVGVYYCGQGTQVPYTFGQGTKLEIK
VH 2: QVQLVESGGGLVQPGRSLRLSCAASGFKFSNVWFHWVRKAPGKGLEWVAQIKDYYNAYAAYYAPSVKGRFTISRDDSKNSIYLQMNSLKTEDTAVYYCHYVHYASASTLLPAEGVDAWGQGTTVTVSS
VL 2: DIVMTQSPLSLPVTPGEPASISCQPSQEVVHMNRNTYLHWYQEKPGQAPRLLIYKVSNRFPGVPDRFSGSGSGTDFTLKISRVEAEDVGVYYCAQGTSHPFTFGQGTKLEIK
notes: 1+1 tri-specific, FAST-Ig format; Full chains not tied by name
The term Kd denotes the concentration at which binding is half-saturated. High values mean a looser complex, low ones a tighter complex. In general, koff refers to the first-order rate constant of dissociation. Read a low koff as slow dissociation. One may read the kon as a measure of how fast the partners come together. Lower therefore signals slower complex formation. In assay [1], B1 came in with a Kd of 43.5 nM, a koff of 0.00063 s⁻¹ and an on-rate constant (kon) of 14500 M⁻¹ s⁻¹. For the same molecule, in the assay with Human CD3eg linker [2], binding was put at a Kd of 751 nM, the koff came out at 0.0628 s⁻¹ and the on-rate (kon) is 83500 M⁻¹ s⁻¹. For the same molecule, the “fold weaker binding affinity than CrossMab xSG1350” value with Human CD3eg linker [3] is roughly 3 fold.

B2: xGPC3/DualAE15-xSG1350k1349hV11 (bispecific antibody, V domains shown)
VH 1: QVQLVQSGAEVKKPGASVTVSCKASGYTFTDYEMHWIRQPPGEGLEWIGAIDGPTPDTAYSEKFKGRVTLTADKSTSTAYMELSSLTSEDTAVYYCTRFYSYTYWGQGTLVTVSS
VL 1: DIVMTQSPLSLPVTPGEPASISCRSSQPLVHSNRNTYLHWYQQKPGQAPRLLIYKVSNRFSGVPDRFSGSGSGTDFTLKISRVEAEDVGVYYCGQGTQVPYTFGQGTKLEIK
VH 2: QVQLVESGGGLVQPGRSLRLSCAASGFKFSNVWFHWVRQAPGKGLEWVAQIKDYYNAYAGYYHPSVKGRFTISRDDSKNSIYLQMNSLKTEDTAVYYCHYVHYAAASQLLPAEGVDAWGQGTTVTVSS
VL 2: DIVMTQSPLSLPVTPGEPASISCQPSQEVVHMNRNTYLHWYQQKPGQAPRLLIYKVSNRFPGVPDRFSGSGSGTDFTLKISRVEAEDVGVYYCAQGTSHPFTFGQGTKLEIK
notes: 1+1 tri-specific, CrossMab format; Full chains not tied by name; also called xGPC3DualAE15-xSG1350kSG1349hV11; xGPC3/DualAE15-xSG1350kSG1349hV11
Consider B2, for which the binding result (in assay [4]; in the assay with Human CD3eg linker [5]) was “binds” in each case.

B3: GPC3KE/DualAE05EK-SG1363k1365hV11 (bispecific antibody, V domains shown)
VH 1: QVQLVQSGAEVKKPGASVTVSCKASGYTFTDYEMHWIRKPPGEGLEWIGAIDGPTPDTAYSEKFKGRVTLTADKSTSTAYMELSSLTSEDTAVYYCTRFYSYTYWGQGTLVTVSS
VL 1: DIVMTQSPLSLPVTPGEPASISCRSSQPLVHSNRNTYLHWYQEKPGQAPRLLIYKVSNRFSGVPDRFSGSGSGTDFTLKISRVEAEDVGVYYCGQGTQVPYTFGQGTKLEIK
VH 2: QVQLVESGGGLVQPGRSLRLSCAASGFKFSNVWFHWVREAPGKGLEWVAQIKDYYNAYAAYYAPSVKGRFTISRDDSKNSIYLQMNSLKTEDTAVYYCHYVHYASASTLLPAEGVDAWGQGTTVTVSS
VL 2: DIVMTQSPLSLPVTPGEPASISCQPSQEVVHMNRNTYLHWYQKKPGQAPRLLIYKVSNRFPGVPDRFSGSGSGTDFTLKISRVEAEDVGVYYCAQGTSHPFTFGQGTKLEIK
notes: as for B1
In assay [1], B3 yielded a Kd of 38 nM, an off-rate (koff) of 0.000506 s⁻¹ and a kon of 13300 M⁻¹ s⁻¹. For the same molecule, in the assay with Human CD3eg linker [2], the affinity, expressed as Kd, was 806 nM; the koff is 0.0611 s⁻¹; the kon stood at 75900 M⁻¹ s⁻¹. In the assay with Human CD3eg linker [3], the “fold weaker binding affinity than CrossMab xSG1350” value is roughly 3 fold.
